T1: H. polygyrus Alarmin Release Inhibitor (HpARI), recombinant mature 6-His and Myc-tagged protein (Heligmosomoides polygyrus)
T1 chain: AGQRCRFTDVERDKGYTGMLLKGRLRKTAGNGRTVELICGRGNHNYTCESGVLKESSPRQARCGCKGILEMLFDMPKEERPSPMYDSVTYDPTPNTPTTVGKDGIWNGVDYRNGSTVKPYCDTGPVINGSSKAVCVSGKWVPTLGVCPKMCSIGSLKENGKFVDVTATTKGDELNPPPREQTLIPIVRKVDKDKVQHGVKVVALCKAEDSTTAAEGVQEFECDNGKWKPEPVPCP

B1: recombinant murine IL-33, untreated (reduced, active form) (ligand)
chain: SIQGTSLLTQSPASLSTYNDQSVSFVLENGCYVINVDDSGKDQEQDQVLLRYYESPCPASQSGDGVDGKKLMVNMSPIKDTDIWLHANDKDYSVELQRGDVSPPEQAFFVLHKKSSDFVSFECKNLPGTYIGVKDNQLALVEEKDESCNNIMFKLSKI
modifications: reduced (free cysteines, no disulfides), active form; limits not given, taken as the usual commercial mature mouse IL-33 (Ser109-Ile266, UniProt chain 109-266)
B2: recombinant human IL-33, untreated (reduced, active form) (ligand)
chain: MKPKMKYSTNKISTAKWKNTASKALCFKLGKSQQKAKEVCPMYFMKLRSGLMIKKEACYFRRETTKRPSLKTGRKHKRHLVLAACQQQSTVECFAFGISGVQKYTRALHDSSITGISPITEYLASLSTYNDQSITFALEDESYEIYVEDLKKDEKKDKVLLSYYESQHPSNESGDGVDGKMLMVTLSPTKDFWLHANNKEHSVELHKCEKPLPDQAFFVLHNMHSNCVSFECKTDPGVFIGVKDNHLALIKVDSSENLCTENILFKLSET

Biological target: T1, H. polygyrus Alarmin Release Inhibitor …
Test: SPR; 25°C

Binder	koff
B1	0.00014 s⁻¹
B2	0.004 s⁻¹
